Data from patent US20040138118.
Numbering of substitutions follows the chain as printed.

Columns and labels:
[1] = target: myostatin pro peptide (wild type)
[2] = target: D76A mutant myostatin pro peptide
[3] = target: T1, 40-mer D to A mutant peptide (SEQ ID NO:14)
T1 chain: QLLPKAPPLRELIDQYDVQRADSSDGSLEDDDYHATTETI

[4] = target: T2, 40-mer R to Q mutant peptide (SEQ ID NO:13)
T2 chain: T1 chain with R20Q, A21D

[5] = target: T3, 20-mer D to A mutant peptide (SEQ ID NO:20)
T3 chain: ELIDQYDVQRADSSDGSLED

[6] = target: T4, 30-mer R to Q mutant peptide (SEQ ID NO:16)
T4 chain: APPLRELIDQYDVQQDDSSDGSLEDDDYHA

[7] = target: T5, 30-mer D to A mutant peptide (SEQ ID NO:17)
T5 chain: T4 chain with Q15R, D16A

[8] = target: T6, 30-mer wild type myostatin pro peptide peptide (SEQ ID NO:15)
T6 chain: T4 chain with Q15R

[9] = target: T7, 20-mer R to Q mutant peptide (SEQ ID NO:19)
T7 chain: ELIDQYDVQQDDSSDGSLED

[10] = target: T8, 20-mer wild type myostatin pro peptide peptide (SEQ ID NO:18)
T8 chain: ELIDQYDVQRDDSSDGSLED

[11] = target: T9, 40-mer wild type myostatin pro peptide peptide (SEQ ID NO:12)
T9 chain: T1 chain with A21D

D76A mutant myostatin pro peptide, sequence (chain, as listed by the source D76A): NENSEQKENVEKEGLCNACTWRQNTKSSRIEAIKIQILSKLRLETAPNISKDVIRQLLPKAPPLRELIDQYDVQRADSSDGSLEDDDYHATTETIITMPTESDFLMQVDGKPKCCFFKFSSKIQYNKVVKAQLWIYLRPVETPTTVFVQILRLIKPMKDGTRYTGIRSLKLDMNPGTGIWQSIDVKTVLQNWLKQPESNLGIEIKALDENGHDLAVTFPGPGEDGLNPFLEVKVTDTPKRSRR

B1: bone morphogenic protein-1 (BMP-1) (protein)
chain: AATSRPERVWPDGVIPFVIGGNFTGSQRAVFRQAMRHWEKHTCVTFLERTDEDSYIVFTYRPCGCCSYVGRRGGGPQAISIGKNCDKFGIVVHELGHVVGFWHEHTRPDRDRHVSIVRENIQPGQEYNFLKMEPQEVESLGETYDFDSIMHYARNTFSRGIFLDTIVPKYEVNGVKPPIGQRTRLSKGDIAQARKLYKCPACGETLQDSTGNFSSPEYPNGYSAHMHCVWRISVTPGEKIILNFTSLDLYRSRLCWYDYVEVRDGFWRKAPLRGRFCGSKLPEPIVSTDSRLWVEFRSSSNWVGKGFFAVYEAICGGDVKKDYGHIQSPNYPDDYRPSKVCIWRIQVSEGFHVGLTFQSFEIERHDSCAYDYLEVRDGHSESSTLIGRYCGYEKPDDIKSTSSRLWLKFVSDGSINKAGFAVNFFKEVDECSRPNRGGCEQRCLNTLGSYKCSCDPGYELAPDKRRCEAACGGFLTKLNGSITSPGWPKEYPPNKNCIWQLVAPTQYRISLQFDFFETEGNDVCKYDFVEVRSGLTADSKLHGKFCGSEKPEVITSQYNNMRVEFKSDNTVSKKGFKAHFFSEKRPALQPPRGRPHQLKFRVQKRNRTPQ
partial proteolytic cleavage of the pro peptide in the latent complex, western blot (FIG. 3E) [1]: BMP-1, mTLL-1, and mTLL-2, were approximately equally effective in cleaving the pro peptide
proteolytic cleavage of free pro peptide [1]: All four of these proteinases also cleaved pro peptide that had been purified away from the C-terminal dimer
proteolytic cleavage of the pro peptide in the latent complex, western blot (FIG. 3D) [1]: incubation of the purified latent complex with purified BMP-1 resulted in complete cleavage of the pro peptide to generate a single product
proteolytic cleavage, SDS-PAGE and western blot with anti-pro peptide antiserum [1]: A discrete proteolytic cleavage product of the pro peptide was detected in each reaction containing one of the four proteases
proteolytic cleavage of the mutant pro peptide in the latent complex, western blot (FIGS. 3D and E) [2]: completely resistant to proteolysis by each of the four proteinases

B2: mammalian Tolloid-like-1 (mTLL-1) (protein)
chain: AATSRTERIWPGGVIPYVIGGNFTGSQRAMFKQAMRHWEKHTCVTFIERSDEESYIVFTYRPCGCCSYVGRRGNGPQAISIGKNCDKFGIVVHELGHVIGFWHEHTRPDRDNHVTIIRENIQPGQEYNFLKMEPGEVNSLGERYDFDSIMHYARNTFSRGMFLDTILPSRDDNGIRPAIGQRTRLSKGDIAQARKLYRCPACGETLQESNGNLSSPGFPNGYPSYTHCIWRVSVTPGEKIVLNFTTMDLYKSSLCWYDYIEVRDGYWRKSPLLGRFCGDKLPEVLTSTDSRMWIEFRSSSNWVGKGFAAVYEAICGGEIRKNEGQIQSPNYPDDYRPMKECVWKITVSESYHVGLTFQSFEIERHDNCAYDYLEVRDGTSENSPLIGRFCGYDKPEDIRSTSNTLWMKFVSDGTVNKAGFAANFFKEEDECAKPDRGGCEQRCLNTLGSYQCACEPGYELGPDRRSCEAACGGLLTKLNGTITTPGWPKEYPPNKNCVWQVVAPTQYRISVKFEFFELEGNEVCKYDYVEIWSGLSSESKLHGKFCGAEVPEVITSQFNNMRIEFKSDNTVSKKGFKAHFFSDKDECSKDNGGCQHECVNTMGSYMCQCRNGFVLHDNKHDCKEAECEQKIHSPSGLITSPNWPDKYPSRKECTWEISATPGHRIKLAFSEFEIEQHQECAYDHLEVFDGETEKSPILGRLCGNKIPDPLVATGNKMFVRFVSDASVQRKGFQATHSTECGGRLKAESKPRDLYSHAQFGDNNYPGQVDCEWLLVSERGSRLELSFQTFEVEEEADCGYDYVELFDGLDSTAVGLGRFCGSGPPEEIYSIGDSVLIHFHTDDTINKKGFHIRYKSIRYPDTTHTKK
partial proteolytic cleavage of the pro peptide in the latent complex, western blot (FIG. 3E) [1]: BMP-1, mTLL-1, and mTLL-2, were approximately equally effective in cleaving the pro peptide
proteolytic cleavage of free pro peptide [1]: All four of these proteinases also cleaved pro peptide that had been purified away from the C-terminal dimer
proteolytic cleavage, SDS-PAGE and western blot with anti-pro peptide antiserum [1]: A discrete proteolytic cleavage product of the pro peptide was detected in each reaction containing one of the four proteases
proteolytic cleavage of the mutant pro peptide in the latent complex, western blot (FIGS. 3D and E) [2]: completely resistant to proteolysis by each of the four proteinases

B3: mammalian Tolloid-like-2 (mTLL-2) (protein)
chain: ATTSRTERIWPGGVIPYVIGGNFTGSQRAIFKQAMRHWEKHTCVTFIERTDEESFIVFSYRTCGCCSYVGRRGGGPQAISIGKNCDKFGIVAHELGHVVGFWHEHTRPDRDQHVTIIRENIQPGQEYNFLKMEAGEVSSLGETYDFDSIMHYARNTFSRGVFLDTILPRQDDNGVRPTIGQRVRLSQGDIAQARKLYKCPACGETLQDTTGNFSAPGFPNGYPSYSHCVWRISVTPGEKIVLNFTSMDLFKSRLCWYDYVEVRDGYWRKAPLLGRFCGDKIPEPLVSTDSRLWVEFRSSSNILGKGFFAAYEATCGGDMNKDAGQIQSPNYPDDYRPSKECVWRITVSEGFHVGLTFQAFEIERHDSCAYDYLEVRDGPTEESALIGHFCGYEKPEDVKSSSNRLWMKFVSDGSINKAGFAANFFKEVDECSWPDHGGCEHRCVNTLGSYKCACDPGYELAADKKMCEVACGGFITKLNGTITSPGWPKEYPTNKNCVWQVVAPAQYRISLQFEVFELEGNDVCKYDFVEVRSGLSPDAKLHGRFCGSETPEVITSQSNNMRVEFKSDNTVSKRGFRAHFFSDKDECAKDNGGCQHECVNTFGSYLCRCRNGYWLHENGHDCKEAGCAHKISSVEGTLASPNWPDKYPSRRECTWNISSTAGHRVKLTFNEFEIEQHQECAYDHLEMYDGPDSLAPILGRFCGSKKPDPTVASGSSMFLRFYSDASVQRKGFQAVHSTECGGRLKAEVQTKELYSHAQFGDNNYPSEARCDWVIVAEDGYGVELTFRTFEVEEEADCGYDYMEAYDGYDSSAPRLGRFCGSGPLEEIYSAGDSLMIRFRTDDTINKKGFHARYTSTKFQDALHMKK
peptide cleavage, HPLC and mass spectrometry [3]: the peptides containing the D→A mutation at the P1′ position were not cleaved
peptide cleavage, HPLC and mass spectrometry [4]: The 40-mer, 30-mer, and 20-mer wild type and R→Q mutant peptides were cleaved by conditioned media containing TLL-2
partial proteolytic cleavage of the pro peptide in the latent complex, western blot (FIG. 3E) [1]: BMP-1, mTLL-1, and mTLL-2, were approximately equally effective in cleaving the pro peptide
proteolytic cleavage of free pro peptide [1]: All four of these proteinases also cleaved pro peptide that had been purified away from the C-terminal dimer
proteolytic cleavage, SDS-PAGE and western blot with anti-pro peptide antiserum [1]: A discrete proteolytic cleavage product of the pro peptide was detected in each reaction containing one of the four proteases
peptide cleavage, HPLC and mass spectrometry [5]: the peptides containing the D→A mutation at the P1′ position were not cleaved
peptide cleavage, HPLC and mass spectrometry [6]: The 40-mer, 30-mer, and 20-mer wild type and R→Q mutant peptides were cleaved by conditioned media containing TLL-2
proteolytic cleavage of the mutant pro peptide in the latent complex, western blot (FIGS. 3D and E) [2]: completely resistant to proteolysis by each of the four proteinases
peptide cleavage, HPLC and mass spectrometry [7]: the peptides containing the D→A mutation at the P1′ position were not cleaved
peptide cleavage, HPLC and mass spectrometry [8]: The 40-mer, 30-mer, and 20-mer wild type and R→Q mutant peptides were cleaved by conditioned media containing TLL-2
peptide cleavage, HPLC and mass spectrometry [9]: The 40-mer, 30-mer, and 20-mer wild type and R→Q mutant peptides were cleaved by conditioned media containing TLL-2
peptide cleavage, HPLC and mass spectrometry [10]: The 40-mer, 30-mer, and 20-mer wild type and R→Q mutant peptides were cleaved by conditioned media containing TLL-2
peptide cleavage, HPLC and mass spectrometry [11]: The 40-mer, 30-mer, and 20-mer wild type and R→Q mutant peptides were cleaved by conditioned media containing TLL-2
